The assay addresses sulfonylurea receptor 1 (Sur1) (mouse (endogenous in lumbar spinal cord)). In words: FRET or BRET; immunoFRET on 7 um cryosections of lumbar spinal cord of pid-30 WT/EAE mice; custom anti-Sur1 and anti-Trpm4 primary antibodies, secondary antibodies conjugated with Cy3 or Cy5; control: omission of one of the two primary antibodies. For orientation: BRET reads energy transfer from a luciferase to a nearby fluorophore.

Sequence of sulfonylurea receptor 1 (Sur1) (mouse (endogenous in lumbar spinal cord)) (B2RUS7 entry or part of it): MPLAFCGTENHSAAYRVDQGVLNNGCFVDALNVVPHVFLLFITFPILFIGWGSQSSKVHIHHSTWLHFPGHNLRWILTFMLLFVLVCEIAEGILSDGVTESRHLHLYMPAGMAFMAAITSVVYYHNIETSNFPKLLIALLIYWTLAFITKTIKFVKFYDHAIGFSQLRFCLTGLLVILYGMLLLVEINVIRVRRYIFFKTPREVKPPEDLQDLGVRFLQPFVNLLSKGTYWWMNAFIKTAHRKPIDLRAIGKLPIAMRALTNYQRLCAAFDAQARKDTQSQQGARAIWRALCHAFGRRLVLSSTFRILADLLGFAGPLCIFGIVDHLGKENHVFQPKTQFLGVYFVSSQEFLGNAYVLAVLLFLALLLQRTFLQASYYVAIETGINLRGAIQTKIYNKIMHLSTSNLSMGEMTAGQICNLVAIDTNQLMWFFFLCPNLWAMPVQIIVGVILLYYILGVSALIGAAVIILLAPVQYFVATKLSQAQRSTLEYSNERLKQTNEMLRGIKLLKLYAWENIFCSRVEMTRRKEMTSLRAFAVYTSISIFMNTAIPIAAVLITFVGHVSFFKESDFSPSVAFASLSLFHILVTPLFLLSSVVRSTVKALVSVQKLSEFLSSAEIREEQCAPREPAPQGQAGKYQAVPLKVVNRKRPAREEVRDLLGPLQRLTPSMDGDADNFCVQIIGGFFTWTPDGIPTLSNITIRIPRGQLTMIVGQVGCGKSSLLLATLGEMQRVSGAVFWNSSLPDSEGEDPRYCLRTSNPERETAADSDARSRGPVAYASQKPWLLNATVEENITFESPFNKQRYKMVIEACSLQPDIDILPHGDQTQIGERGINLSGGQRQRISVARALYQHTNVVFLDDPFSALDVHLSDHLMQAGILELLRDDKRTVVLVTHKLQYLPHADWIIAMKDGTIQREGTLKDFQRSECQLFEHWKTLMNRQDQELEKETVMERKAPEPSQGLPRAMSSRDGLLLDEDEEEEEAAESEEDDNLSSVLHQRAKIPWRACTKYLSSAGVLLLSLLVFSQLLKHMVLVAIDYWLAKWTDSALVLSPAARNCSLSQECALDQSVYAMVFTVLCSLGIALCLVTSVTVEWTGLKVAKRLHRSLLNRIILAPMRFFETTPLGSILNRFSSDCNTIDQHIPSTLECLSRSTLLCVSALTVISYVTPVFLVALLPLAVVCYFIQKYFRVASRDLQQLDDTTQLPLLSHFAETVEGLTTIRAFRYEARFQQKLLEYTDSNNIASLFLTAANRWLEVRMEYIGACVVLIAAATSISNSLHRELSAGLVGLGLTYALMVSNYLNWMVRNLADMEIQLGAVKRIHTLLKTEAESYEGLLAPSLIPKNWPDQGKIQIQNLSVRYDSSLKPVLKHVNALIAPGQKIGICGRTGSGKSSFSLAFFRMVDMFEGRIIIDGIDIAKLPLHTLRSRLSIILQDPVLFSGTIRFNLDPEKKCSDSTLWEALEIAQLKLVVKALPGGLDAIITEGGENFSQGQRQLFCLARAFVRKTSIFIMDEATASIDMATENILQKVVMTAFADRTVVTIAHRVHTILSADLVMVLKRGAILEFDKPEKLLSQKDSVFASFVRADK

Regarding “transient receptor potential melastatin 4 (Trpm4) (from UniProt Q7TN37 1-1213) (natural protein)”, the FRET efficiency was in the range of 10 to 14%.

The values are drawn from PMC4652344.
